Assay results as given in US20190016806A1 (BPS BIOSCIENCE, published 2019).

Target: PD-1 expressed on Jurkat T cells (NFAT luciferase reporter) (human, UniProt Q15116 25-288)
Experiment: cell-based or functional assay

Sequence of PD-1 expressed on Jurkat T cells (NFAT luciferase reporter) (Q15116 25-288): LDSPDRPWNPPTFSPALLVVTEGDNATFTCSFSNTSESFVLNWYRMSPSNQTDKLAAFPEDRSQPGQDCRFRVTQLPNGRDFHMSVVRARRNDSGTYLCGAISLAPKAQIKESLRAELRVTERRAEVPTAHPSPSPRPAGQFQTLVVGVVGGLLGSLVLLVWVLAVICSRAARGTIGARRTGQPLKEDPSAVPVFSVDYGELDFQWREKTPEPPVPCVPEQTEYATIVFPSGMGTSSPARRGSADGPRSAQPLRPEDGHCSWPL

EC50 of inhibition of PD-1 signaling (NFAT luciferase reporter in Jurkat T cells with PD-L1-expressing HEK293 cells): 0.38 µg/mL
B1: BPS hAb-10D3 humanized anti-PD-1 neutralizing antibody (antibody, V domains shown)
VH: QVQLQESGPGLVKPSQTLSLTCSVSGYSITSGYFWNWIRQFPGNKLEWIGYISYDGSKNYNPSLKNRVTIIRDTSKNQFSLKLNSVTAEDTATYYCVRGGLPVMDYWGQGTSVTVSS
VL: DIVMTQSPSSLALSVGEKATIQCKSSQSLLDDNNQKNYLAWYQQKPGQPPKLLIFFASTRESGVPDRFIGSGSGTDFTLTISSLQAEDLADYYCQQHYTTPYTFGGGTNVEIK
